Test: soluble on expression in E. coli; label from the status in PepcDB or PDB records

Row | Sequence | soluble on expression in E. coli
1 | MNADGWLADTRSSYDTVAVSYADQLRGALAGTPYLRAALELFAGMIHTAGGGPVADVGCGPGHVTAHLHGLGVDAFGIDLSPAMIDVARRDHPDLRFEVGSMTDLNLADASVTALLAFWSLIHVPDDAIPAVFGHFRRVVRPGGPLLLGFHIGDESRLKTEGYGGHPMKVHVHHRQPVQVTAWLRDAGFTVEAQWLLGLDGHIPGAVLFAHRQSLEHHHHHH | not soluble
2 | MNAHVTSREGVNEFDDGIVIVGGGLAAARTAEQLRRAGYSGRLTIVSDEVHLPYDRPPLSKEVLRSEVDDVALKPREFYDEKDIALRLGSAAVSLDTGEQTVTLADGTVLGYDELVIATGLVPRRIPSLPDLDGIRVLRSFDESMALRKHASAARHAVVVGAGFIGCEVAASLRGLGVDVVLVEPQPAPLASVLGEQIGQLVTRLHRDEGVDVRTGVTVAEVRGKGHVDAVVLTDGTELPADLVVVGIGSTPATEWLEGSGVEVDNGVICDKAGRTSAPNVWALGDVASWRDPMGHQARVEHWSNVADQARVVVPAMLGTDVPTGVVVPYFWSDQYDVKIQCLGEPHATDVVHLVEDDGRKFLAYYERDGVLVGVVGGGMAGKVMKVRGKIAAGAPIAEVLDQTQA | soluble
3 | MNALARRAAGLLLGTLCLPLAAFAADVQPTHEFILDNGLKVVVREDHRAPVVVSQIWYKVGSSYETPGQTGLSHALEHMMFKGSAKVGPGEASRILRDLGADENAFTSDDYTAYYQVLARDRLPVALELEADRLASLRLPADEFSREIEVIKEERRLRTDDQPNAKAFELFRAMAYPASGYHTPTIGWMADLERMKVEELRHWYESWYAPNNATLVVVGDVTADEVKGLAQKYFGNIPKRA | not soluble
4 | MNALLSNPFKERLRKGEVQIGLWLSSTTAYMAEIAATSGYDWLLIDGEHAPNTIQDLYHQLQAVAPYASQPVIRPVEGSKPLIKQVLDIGAQTLLIPMVDTAEQARQVVSATRYPPYGERGVGASVARAARWGRIENYMAQVNDSLCLLVQVESKTALDNLDEILDVEGIDGVFIGPADLSASLGYPDNAGHPEVQRIIETSIRRIRAAGKAAGFLAVAPDMAQQCLAWGANFVAVGVDTMLYSDALDQRLAMFKSGKNGPRIKGSY | soluble
5 | MNARKAPEFPAWPQYDDAERNGLVRALEQGQWWRMGGDEVNSFEREFAAHHGAAHALAVTNGTHALELALQVMGVGPGTEVIVPAFTFISSSQAAQRLGAVTVPVDVDAATYNLDPEAVAAAVTPRTKVIMPVHMAGLMADMDALAKISADTGVPLLQDAAHAHGARWQGKRVGELDSIATFSFQNGKLMTAGEGGAVVFPDGETEKYETAFLRHSCGRPRDDRRYFHKIAGSNMRLNEFSASVLRAQLARLDEQIAVRDERWTLLSRLLGAIDGVVPQGGDVRADRNSHYMAMFRIPGLTEERRNALVDRLVEAGLPAFAAFRAIYRTDAFWELGAPDESVDAIARRCPNTDAISSDCVWLHHRVLLAGEPELHATAEIIADAVARA | soluble
6 | MNASSAPQQQQQQQQPQQGQAPQQQQQGPPQHQYQQQRPFHGRVQNHMRGSGPFGNSNGYGRYTAPRGDQQHHDSTPLSSTNLYIRGLMPNTNDDLLREMCSKYGNIASTKAIMDKATNNCKGYGFVDFESPQAAAAAVDGLNTEGVQAQMAKLQQQEQDPTNLYIANLPLDFTEQMLETELNKFGMVISTRILRTPDNQSRGVGFARMDSKEKCEVIISALNGGRFDTMSKEGPALLIKQADTGRKSKHSMNNPEMLQRMQYPQVYQSYYGYHPAAVYQQHYDVNSLASQMGGMHVGGGNPQANGGGDMYGAHMYGQNAGGQGGQGVGQGGQGGNQQFYNPNNGRNKKYFQPMNPQ | not soluble
7 | MNAVKIEKGVAQYIEHNLYYYFEYVRDIQRLKKDILFGRANYDENVGGGRGNLPSRPTERRTIELITHRRLERLEQIVHAIQTVYRSLSPEKQKAVQLKYWSGKSYTWEQVAREIGVSVRQLYRWRDQIIYDIAKLLGEVNSNS | not soluble
8 | MNAWEVNFDGLVGLTHHYAGLSFGNEASTRHRFQVSNPRLAAKQGLLKMKALADAGFPQAVIPPHERPFIPVLRQLGFSGSDEQVLEKVARQAPHWLSSVSSASPMWVANAATIAPSADTLDGKVHLTVANLNNKFHRSLEAPVTESLLKAIFNDEEKFSVHSALPQVALLGDEGAANHNRLGGHYGEPGMQLFVYGREEGNDTRPSRYPARQTREASEAVARLNQVNPQQVIFAQQNPDVIDQGVFHNDVIAVSNRQVLFCHQQAFARQSQLLANLRARVNGFMAIEVPATQVSVSDTVSTYLFNSQLLSRDDGSMMLVLPQECREHAGVWGYLNELLAADNPISELKVFDLRESMANGGGPACLRLRVVLTEEERRAVNPAVMMNDTLFNALNDWVDRYYRDRLTAADLADPQLLREGREALDVLSQLLNLGSVYPFQREGGGNG | soluble
9 | MNDDALPVHSTDLLDFDEDFIKIDAAICEYDSVGHAPQRKGESAFQWASVETACLALLKKAKDVRVAIWYLRACIARRGLSGLADGVRLLAELMSAPVEELHPRALPDESPGETLLIHLGWLAGPQFLHQLGSSRFEDRDATLNDLIGGRAAAIVEDRDYCVRANTLVHDIKDSLSRIRESVAVVEQELNLSRSLDLLSVAASRLARTDAGRAESESVAGEKPAHAEAGFSPAPDPQQPAAGPGGALRSRQEVGVALERIVEYFRLHEPSHPAPIFLSRIQRMLGAGFEEVMAELYPEAASLVAQLNRPQSSIK | not soluble
10 | MNDSSLKKALSQNSISSAPRRPQKLGSVQSIVRNESDKNVPSPFEEITLSDDDEEAPAKKPVKCATCARDMTLWMNSRRDIHVKVCKAKQSEKEKETTRKSKTLTETIEKDDQVYEKPSSKTHLFEKPFEKPQELPKSWELSKNNVKFARIAEDDEENRKRKRPRSFAVVELAPKKCQCEVLTTLHSRFIDEFHSKSIKNQKKREEGVTEHAFQMKKMIEKISRYEQLSSDMQKVLDDNSEQLPTHIFITCSDGHRVKCQTMILKHRTSLIRLNPKSENIQVEHTKEVVKAWISFVFTANIEWNDDDKDGVRDLASKYGPVGLDLIVKNDKEEDLEKVDDVEDVVEPEAKIDSVVADPVEIEPTASHSDPIELDKSVNYFTSDDPFFGFGKAVENVEDDAEQIMEDKPHESVHSTPQKPTTNVTMDSFDEWSNQPSTNLPTTSNVITPIRNITSKAVFGSHVKILKTNDITPMPAFDSMEEAELKERMKEIGMRPKGKKAMIQILKKAYITLHPEICSGTPTIRPLVRSASLEKVSEQGGKGGRKTIKTKTLSERMIASPKKVSPKKQGVKNAISDETSKNVSNVSDDLDEDNDGDKTLNISNDEREVGKIWGDDVGDDEEDDDDMSASSTSGKHDLSALKLAFLTWLRSDQNTVLHEHILSLQPVSLEEMLIRLEKADGPLGRIGKGKLVKLLEMLKITYQLPQKTGRARGGYKRRL | not soluble
11 | MNDTLPGRISRERRGHLLLLGLDRVAKRNAFDLPMLDDLVAALGEYEADDQLRCALLFAHGEHFTAGLDLANVGETFRQGWKLPEGAVDPWGTFGGRRPSKPLVVAVQGYCYTIGIELMLAADINLCASNARFAQLEVQRGILPFGGATLRMHQVAGWGNAMRWLLTGDEFDAHEAYRLGLVQEVTAPEDLLDHAIALAERVAAQAPLGVRATLGSARQALLEGEAVAAAALPEAARRLLDSEDAKEG | not soluble
12 | MNEAEHSVEHPPVQGSHVEGGVVEHPDAKDFGSAAALPADPTWFKHAVFYEVLVRAFFDASADGSGDLRGLIDRLDYLQWLGIDCIWLPPFYDSPLRDGGYDIRDFYKVLPEFGTVDDFVALVDAAHRRGIRIITDLVMNHTSESHPWFQESRRDPDGPYGDYYVWSDTSERYTDARIIFVDTEESNWSFDPVRRQFYWHRFFSHQPDLNYDNPAVQEAMIDVIRFWLGLGIDGFRLDAVPYLFEREGTNCENLPETHAFLKRVRKVVDDEFPGRVLLAEANQWPGDVVEYFGDPNTGGDECHMAFHFPLMPRIFMAVRRESRFPISEIIAQTPPIPDMAQWGIFLRNHDELTLEMVTDEERDYMYAEYAKDPRMKANVGIRRRLAPLLDNDRNQIELFTALLLSLPGSPVLYYGDEIGMGDVIWLGDRDGVRIPMQWTPDRNAGFSTANPGRLYLPPSQDPVYGYQAVNVEAQRDTSTSLLNFTRTMLAVRRRHPAFAVGAFQELGGSNPSVLAYVRQVAGDDGDTVLCVNNLSRFPQPIELDLQQWTNYTPVELTGHVEFPRIGQVPYLLTLPGHGFYWFQLTTHEVGAPPTCGGERRL | soluble
13 | MNECAFGTKDPVYLNYHDHVWGQPLYDSKALFKLLALESQHAGLSWLTILKKKEAYEEAFYDFEPEKVAQMTAQDIDRLMTFPNIVHHRKKLEAIVNQAQGYLKIEQAYGSFSKFLWSYVNGKPKDLQYEHASDRITVDDTATQLSKDLKQYGFKFLGPVTVFSFLEAAGLYDAHLKDCPSKPKHN | soluble
